Tests used:
[1] = molecular target: T1, 人源重组C5蛋白 (Sino Biologica, Cat#13416-H18H) (human, UniProt P01031 19-1676); assay: BLI (Octet), antibody on AHC sensor, C5 0.4688-30 nM; run no. 4
T1 construct: also called 人源C5蛋白; 全长C5

[2] = molecular target: T1, 人源重组C5蛋白 (Sino Biologica, …); assay: BLI (Octet), antibody on AHC sensor, C5 0.4688-30 nM; run no. 3
[3] = molecular target: T1, 人源重组C5蛋白 (Sino Biologica, …); assay: BLI (Octet), antibody on AHC sensor, C5 0.4688-30 nM; run no. 2
[4] = molecular target: T1, 人源重组C5蛋白 (Sino Biologica, …); assay: BLI (Octet), antibody on AHC sensor, C5 0.4688-30 nM; run no. 5
[5] = molecular target: T1, 人源重组C5蛋白 (Sino Biologica, …); assay: BLI (Octet), antibody on AHC sensor, C5 0.4688-30 nM; run no. 1

T1 sequence (P01031 19-1676 limits assumed): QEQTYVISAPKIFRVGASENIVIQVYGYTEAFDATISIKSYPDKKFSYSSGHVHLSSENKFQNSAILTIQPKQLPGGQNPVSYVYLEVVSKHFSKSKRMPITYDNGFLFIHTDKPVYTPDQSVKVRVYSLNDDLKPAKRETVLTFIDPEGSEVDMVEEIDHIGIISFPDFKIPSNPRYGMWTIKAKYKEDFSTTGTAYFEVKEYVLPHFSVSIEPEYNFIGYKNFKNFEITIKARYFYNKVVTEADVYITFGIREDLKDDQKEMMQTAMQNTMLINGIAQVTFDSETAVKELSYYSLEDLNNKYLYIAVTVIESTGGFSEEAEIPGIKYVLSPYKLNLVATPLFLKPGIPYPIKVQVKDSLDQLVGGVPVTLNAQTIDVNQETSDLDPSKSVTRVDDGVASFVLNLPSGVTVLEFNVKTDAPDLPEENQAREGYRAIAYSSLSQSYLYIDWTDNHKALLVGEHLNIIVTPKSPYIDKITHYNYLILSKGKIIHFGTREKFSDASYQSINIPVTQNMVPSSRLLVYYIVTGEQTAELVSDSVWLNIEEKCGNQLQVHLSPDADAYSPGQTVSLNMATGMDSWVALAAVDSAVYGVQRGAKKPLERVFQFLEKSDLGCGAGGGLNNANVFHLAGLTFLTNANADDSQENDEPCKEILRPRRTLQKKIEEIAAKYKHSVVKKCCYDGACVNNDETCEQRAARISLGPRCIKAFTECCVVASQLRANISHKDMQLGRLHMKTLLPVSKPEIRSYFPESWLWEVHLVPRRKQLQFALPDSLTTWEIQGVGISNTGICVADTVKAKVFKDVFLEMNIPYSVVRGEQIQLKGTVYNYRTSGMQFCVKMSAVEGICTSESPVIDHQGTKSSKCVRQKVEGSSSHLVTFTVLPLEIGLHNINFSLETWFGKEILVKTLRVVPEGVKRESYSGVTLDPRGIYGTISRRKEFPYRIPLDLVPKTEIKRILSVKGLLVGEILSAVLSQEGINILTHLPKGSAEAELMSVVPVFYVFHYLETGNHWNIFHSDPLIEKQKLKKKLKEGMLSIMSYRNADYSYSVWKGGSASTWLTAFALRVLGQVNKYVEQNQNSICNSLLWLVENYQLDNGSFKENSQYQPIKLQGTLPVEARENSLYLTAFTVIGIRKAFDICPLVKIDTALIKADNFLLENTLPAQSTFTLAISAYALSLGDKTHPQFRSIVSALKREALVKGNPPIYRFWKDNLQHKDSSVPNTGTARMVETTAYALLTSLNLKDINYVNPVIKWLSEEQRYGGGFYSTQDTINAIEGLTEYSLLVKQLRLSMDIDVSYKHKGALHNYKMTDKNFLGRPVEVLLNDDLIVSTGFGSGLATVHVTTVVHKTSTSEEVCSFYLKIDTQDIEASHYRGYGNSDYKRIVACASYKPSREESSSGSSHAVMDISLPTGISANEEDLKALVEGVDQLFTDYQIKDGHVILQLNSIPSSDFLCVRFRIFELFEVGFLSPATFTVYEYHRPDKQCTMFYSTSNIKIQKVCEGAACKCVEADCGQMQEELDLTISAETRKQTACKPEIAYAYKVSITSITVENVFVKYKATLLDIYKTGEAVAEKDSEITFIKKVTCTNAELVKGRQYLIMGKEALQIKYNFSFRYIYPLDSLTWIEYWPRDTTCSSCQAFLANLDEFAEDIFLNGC

B1: CR3#75/IgG4 (antibody, V domains shown)
VH: EVQLVQSGAEVKKPGATVKISCKVSGYTFTDYYTHWVQQAPGKGLEWMGLVDPEGGETIYAEKFQGRVTITADASTDTAYMELSSLRSEDTAVYYCATGSFLAAPDYWGQGTTVTVSS
VL: not shown
notes: also called 抗C5抗体CR3#75; S125(38#)-3
- Kd [1]: 0.722 nM
- koff [1]: 0.000307 s⁻¹
- kon [1]: 425000 M⁻¹ s⁻¹
- Kd [2]: 0.616 nM
- koff [2]: 0.000279 s⁻¹
- kon [2]: 452000 M⁻¹ s⁻¹
- Kd [3]: 0.614 nM
- koff [3]: 0.0003 s⁻¹
- kon [3]: 488000 M⁻¹ s⁻¹
- Kd [4]: 0.72 nM
- koff [4]: 0.000309 s⁻¹
- kon [4]: 429000 M⁻¹ s⁻¹
- Kd [5]: 0.366 nM
- koff [5]: 0.000151 s⁻¹
- kon [5]: 413000 M⁻¹ s⁻¹

— patent publication CN114149501A (TENCEL BIOMEDICINE CO LTD, dated 2022)
